According to patent US20200283478A1 (Genentech, published 2020):
Bridge positions count the residues as written; N and C are the ends. Square brackets hold non-standard residues; d marks the D form. Ends that are not written are not given here. hArg = N=C(N)NCCCC[C@H](N)C(=O)O

What was measured:
[1] = molecular target: T1, proprotein convertase subtilisin/kexin type 9 (PCSK9) (human, UniProt Q8NBP7 31-692); experiment: phage spot ELISA; first of two rows with this extension
T1 construct: His-tagged full-length PCSK9 in TR-FRET and SPR, biotinylated in phage ELISA; secreted protein is autoprocessed (prodomain plus catalytic/CRD chain starting at S153); also called rec.PCSK9; His-PCSK9
T1 sequence (Q8NBP7 other isoform, or with tags, fused parts or gaps limits assumed): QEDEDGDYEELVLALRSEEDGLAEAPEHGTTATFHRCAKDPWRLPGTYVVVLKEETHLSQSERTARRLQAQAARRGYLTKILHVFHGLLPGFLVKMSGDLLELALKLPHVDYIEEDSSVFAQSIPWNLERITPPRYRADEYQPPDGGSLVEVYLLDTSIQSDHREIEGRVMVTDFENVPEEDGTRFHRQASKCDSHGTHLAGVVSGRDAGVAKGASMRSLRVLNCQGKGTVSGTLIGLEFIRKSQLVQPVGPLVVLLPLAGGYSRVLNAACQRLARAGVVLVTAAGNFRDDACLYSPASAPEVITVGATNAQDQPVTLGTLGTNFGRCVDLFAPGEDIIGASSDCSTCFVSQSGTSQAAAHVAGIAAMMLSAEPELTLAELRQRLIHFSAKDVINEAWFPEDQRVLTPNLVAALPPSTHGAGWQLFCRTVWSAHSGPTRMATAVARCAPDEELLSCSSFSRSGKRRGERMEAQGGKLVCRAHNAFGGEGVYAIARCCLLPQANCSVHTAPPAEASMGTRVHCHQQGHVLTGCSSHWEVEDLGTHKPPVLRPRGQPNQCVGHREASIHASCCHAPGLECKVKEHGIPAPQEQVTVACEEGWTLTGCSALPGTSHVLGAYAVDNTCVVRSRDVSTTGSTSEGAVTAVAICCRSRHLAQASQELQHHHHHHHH

PCSK9Δhelix [2] = molecular target: T2, PCSK9Δhelix (human, Chemically biotinylated in the phage ELISAs; the site is not given.); experiment: as above
T2 construct: construct M1-Q692 with engineered TEV site, cleaved by TEV; also called His-PCSK9Δhelix; open groove PCSK9Δhelix
T2 sequence (prodomain, as listed by the source mutant limits assumed, chain 1 of 2): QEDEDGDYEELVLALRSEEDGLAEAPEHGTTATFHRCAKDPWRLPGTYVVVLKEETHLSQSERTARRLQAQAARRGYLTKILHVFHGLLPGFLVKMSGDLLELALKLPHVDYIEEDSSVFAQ
T2 sequence (chain, as listed by the source mutant limits assumed, chain 2 of 2): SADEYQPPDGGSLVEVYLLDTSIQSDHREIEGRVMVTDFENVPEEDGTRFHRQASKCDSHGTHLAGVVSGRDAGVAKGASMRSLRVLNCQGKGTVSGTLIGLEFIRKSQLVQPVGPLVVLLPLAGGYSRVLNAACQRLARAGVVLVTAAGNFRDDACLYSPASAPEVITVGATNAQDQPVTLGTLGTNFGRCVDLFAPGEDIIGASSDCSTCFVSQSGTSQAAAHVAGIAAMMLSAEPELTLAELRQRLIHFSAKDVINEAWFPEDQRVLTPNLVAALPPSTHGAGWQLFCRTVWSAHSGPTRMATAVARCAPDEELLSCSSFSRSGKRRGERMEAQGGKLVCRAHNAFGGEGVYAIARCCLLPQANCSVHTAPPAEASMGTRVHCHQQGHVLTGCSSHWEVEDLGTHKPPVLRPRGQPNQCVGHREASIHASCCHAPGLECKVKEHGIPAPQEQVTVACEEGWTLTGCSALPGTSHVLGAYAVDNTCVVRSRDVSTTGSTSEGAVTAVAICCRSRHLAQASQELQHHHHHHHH

[3] = molecular target: T1, proprotein convertase subtilisin/kexin …; experiment: phage spot ELISA; second of two rows with this extension
PCSK9Δhelix [4] = molecular target: T2, PCSK9Δhelix; experiment: as above
[5] = molecular target: T1, proprotein convertase subtilisin/kexin …; experiment: cell-based or functional assay
PCSK9Δhelix [6] = molecular target: T2, PCSK9Δhelix; experiment: phage competition ELISA against phage-displayed Pep2-8 (Φpep2-8)
PCSK9Δhelix [7] = molecular target: T2, PCSK9Δhelix; experiment: phage competition ELISA against phage-displayed K9gvpep4 (ΦK9gvpep4)
PCSK9Δhelix [8] = molecular target: T2, PCSK9Δhelix; experiment: phage competition ELISA: synthetic peptide against its phage-displayed counterpart
PCSK9Δhelix [9] = molecular target: T2, PCSK9Δhelix; experiment: Ab20 TR-FRET competition and SPR
[10] = molecular target: T1, proprotein convertase subtilisin/kexin …; experiment: SPR
PCSK9Δhelix [11] = molecular target: T2, PCSK9Δhelix; experiment: SPR
[12] = molecular target: T3, PCSK9 (proprotein convertase subtilisin/kexin type 9), His-tagged, full-length (human, UniProt Q8NBP7 31-692); experiment: SPR, Method 2 (Biacore T100, NTA capture, single cycle kinetics)
T3 construct: Captured by the His tag (SPR Methods 1 and 2), amine-coupled (Method 3), or His-tagged in TR-FRET; also called His-PCSK9
T3 sequence (Q8NBP7 31-692 limits assumed): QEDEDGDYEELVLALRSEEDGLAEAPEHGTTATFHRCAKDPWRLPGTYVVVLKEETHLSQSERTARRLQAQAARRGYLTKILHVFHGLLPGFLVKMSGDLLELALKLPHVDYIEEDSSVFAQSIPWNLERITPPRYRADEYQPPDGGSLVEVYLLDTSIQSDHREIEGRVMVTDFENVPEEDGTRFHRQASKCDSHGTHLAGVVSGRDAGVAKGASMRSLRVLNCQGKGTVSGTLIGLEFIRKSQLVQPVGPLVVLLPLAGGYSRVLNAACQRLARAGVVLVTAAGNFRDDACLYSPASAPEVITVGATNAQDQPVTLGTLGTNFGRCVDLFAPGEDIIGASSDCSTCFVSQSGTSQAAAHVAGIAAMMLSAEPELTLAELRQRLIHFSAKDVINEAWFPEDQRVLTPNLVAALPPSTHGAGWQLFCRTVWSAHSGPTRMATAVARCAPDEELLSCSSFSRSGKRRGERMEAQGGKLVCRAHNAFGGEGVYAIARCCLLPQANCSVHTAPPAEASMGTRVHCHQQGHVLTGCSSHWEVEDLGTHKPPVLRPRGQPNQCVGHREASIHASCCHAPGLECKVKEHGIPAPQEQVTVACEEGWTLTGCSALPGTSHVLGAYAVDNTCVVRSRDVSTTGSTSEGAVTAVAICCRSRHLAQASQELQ

PCSK9Δhelix [13] = molecular target: T4, PCSK9Δhelix (human, UniProt Q8NBP7 31-152; Q8NBP7 168-692); experiment: as above
T4 construct: Made by TEV cleavage of human PCSK9 M1-Q692 with an engineered TEV site; The new N-terminus of the catalytic domain is S-A168; also called His-PCSK9Δhelix; PCSK9 lacking the P' helix
T4 sequence (Q8NBP7 31-152, stated change not applied, chain 1 of 2): as the sequence (prodomain, as listed by the source mutant limits assumed, chain 1 of 2) above
T4 sequence (Q8NBP7 other isoform, or with tags, fused parts or gaps mutant, chain 2 of 2): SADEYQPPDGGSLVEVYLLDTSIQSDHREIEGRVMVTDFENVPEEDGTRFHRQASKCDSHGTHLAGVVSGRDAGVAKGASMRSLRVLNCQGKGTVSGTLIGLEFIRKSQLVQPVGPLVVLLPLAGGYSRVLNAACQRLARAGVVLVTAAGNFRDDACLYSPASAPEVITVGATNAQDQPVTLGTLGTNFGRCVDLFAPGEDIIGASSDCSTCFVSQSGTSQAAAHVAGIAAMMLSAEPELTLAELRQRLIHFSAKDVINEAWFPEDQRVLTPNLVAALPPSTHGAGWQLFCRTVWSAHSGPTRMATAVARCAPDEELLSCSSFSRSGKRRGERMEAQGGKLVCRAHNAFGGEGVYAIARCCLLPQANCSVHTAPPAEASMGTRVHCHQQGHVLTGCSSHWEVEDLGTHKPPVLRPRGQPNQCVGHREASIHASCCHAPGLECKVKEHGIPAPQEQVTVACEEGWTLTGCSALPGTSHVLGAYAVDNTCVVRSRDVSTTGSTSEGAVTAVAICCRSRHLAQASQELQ

[14] = molecular target: T3, PCSK9 (proprotein convertase …); experiment: TR-FRET competition; competitor EGF(A)-Fc binding to His-PCSK9
PCSK9Δhelix [15] = molecular target: T4, PCSK9Δhelix; experiment: TR-FRET competition; competitor Ab20 binding to His-PCSK9Δhelix

B1: SEQ ID NO 308 (peptide)
peptide: TAFTSWEEYLDWVGSGVLWNHSRI
**Q.** Which results are given for B1?
**A.** ELISA [1]: 2.74; s/n ratio [1]: 24.9; ELISA (PCSK9Δhelix [2]): 2.82; s/n ratio (PCSK9Δhelix [2]): 26.4; ELISA [3]: 3; s/n ratio [3]: 29.7; ELISA (PCSK9Δhelix [4]): 2.91; s/n ratio (PCSK9Δhelix [4]): 31.3

B2: Compound 19 (peptide)
peptide: Ac-TVFTSWEEYLDWVGSGCRLPWNLQRIGLPC-NH2
modifications: disulfide 17-30 (inferred)
notes: also called Pep2-8p4; Pep2-8_K9gvpep4
**Q.** Which “concentration restoring LDLR levels on HepG2 cells to 50% (EC50)” value [5] does the source give for B2 here?
**A.** Its value is about 500 nM.

**Q.** What about the IC50 (PCSK9Δhelix [6]) of the same binder?
**A.** Its IC50 is 2.92 nM.

**Q.** What about the IC50 (PCSK9Δhelix [7]) of the same binder?
**A.** Its IC50 is 5.65 nM.

B3: Compound 20 (peptide)
peptide: Ac-TVFTSWEEYLDWVGSGDLMPWNLVRIGLLR-NH2
notes: also called Pep2-8p7; Pep2-8_K9gvpep7
**Q.** Which IC50 (PCSK9Δhelix [6]) does the source give for B3 here?
**A.** The IC50 was 1.75 nM.

**Q.** And the IC50 (PCSK9Δhelix [7])?
**A.** Its IC50 is 5.99 nM.

B4: K9gvpep4 (peptide)
peptide: SGCRLPWNLQRIGLPC
modifications: not fully specified (bridges); cysteine pairing not given here
notes: synthetic; Compound 19 = Pep2-8_K9gvpep4, the two N-terminal residues of K9gvpep4 being the SG of the GSG linker
**Q.** Which IC50 (PCSK9Δhelix [8]) does the source give for B4 here?
**A.** The IC50 was 544 nM.

B5: Compound 53 (peptide)
peptide: Ac-WNLVRIGLLR-NH2
**Q.** B5 was tested. Which “fold reduction of binding affinity on elimination of Pro4” value (PCSK9Δhelix [9]) did it give?
**A.** The value was 10 fold.

B6: K9gvpep7 (peptide)
peptide: SGDLMPWNLVRIGLLR
notes: synthetic; Compound 20 = Pep2-8_K9gvpep7
**Q.** Which IC50 (PCSK9Δhelix [8]) does the source give for B6 here?
**A.** Its IC50 is 914 nM.

B7: Compound 228 (peptide)
peptide: Ac-SFAFPGWNLV[hArg]IGLLR-NH2
SMILES: CC[C@H](C)[C@H](NC(=O)[C@H](CCCCNC(=N)N)NC(=O)[C@@H](NC(=O)[C@H](CC(C)C)NC(=O)[C@H](CC(N)=O)NC(=O)[C@H](Cc1c[nH]c2ccccc12)NC(=O)CNC(=O)[C@@H]1CCCN1C(=O)[C@H](Cc1ccccc1)NC(=O)[C@H](C)NC(=O)[C@H](Cc1ccccc1)NC(=O)[C@H](CO)NC(C)=O)C(C)C)C(=O)NCC(=O)N[C@@H](CC(C)C)C(=O)N[C@@H](CC(C)C)C(=O)N[C@@H](CCCNC(=N)N)C(N)=O
**Q.** For B7, which Kd [10] is on record?
**A.** The Kd was 2800 nM.

B8: Compound 192 (peptide)
peptide: Ac-WNLV[hArg]IGLLR-NH2
**Q.** Which “fold improvement of binding affinity by homo-arginine substitution (against Compound 53)” value (PCSK9Δhelix [11]) does the source give for B8 here?
**A.** Its value is 14 fold.

B9: Compound 23 (peptide)
peptide: Ac-SPCRVGYTPC-NH2
modifications: disulfide 3-10
SMILES: CC(=O)N[C@@H](CO)C(=O)N1CCC[C@H]1C(=O)N[C@H]1CSSC[C@@H](C(N)=O)NC(=O)[C@@H]2CCCN2C(=O)[C@H]([C@@H](C)O)NC(=O)[C@H](Cc2ccc(O)cc2)NC(=O)CNC(=O)[C@H](C(C)C)NC(=O)[C@H](CCCNC(=N)N)NC1=O
notes: Two Cys
**Q.** Which results are given for B9?
**A.** Kd [12]: 5740 nM; Kd (PCSK9Δhelix [13]): 754 nM

B10: Compound 2 (peptide)
peptide: Ac-TVFTSWEEYLDWVGSGCWNLKRIGSQGC-NH2
modifications: disulfide 17-28
SMILES: CC[C@H](C)[C@@H]1NC(=O)[C@H](CCCNC(=N)N)NC(=O)[C@H](CCCCN)NC(=O)[C@H](CC(C)C)NC(=O)[C@H](CC(N)=O)NC(=O)[C@H](Cc2c[nH]c3ccccc23)NC(=O)[C@@H](NC(=O)CNC(=O)[C@H](CO)NC(=O)CNC(=O)[C@@H](NC(=O)[C@H](Cc2c[nH]c3ccccc23)NC(=O)[C@H](CC(=O)O)NC(=O)[C@H](CC(C)C)NC(=O)[C@H](Cc2ccc(O)cc2)NC(=O)[C@H](CCC(=O)O)NC(=O)[C@H](CCC(=O)O)NC(=O)[C@H](Cc2c[nH]c3ccccc23)NC(=O)[C@H](CO)NC(=O)[C@@H](NC(=O)[C@H](Cc2ccccc2)NC(=O)[C@@H](NC(=O)[C@@H](NC(C)=O)[C@@H](C)O)C(C)C)[C@@H](C)O)C(C)C)CSSC[C@@H](C(N)=O)NC(=O)CNC(=O)[C@H](CCC(N)=O)NC(=O)[C@H](CO)NC(=O)CNC1=O
notes: Disulfide C17-C28
**Q.** For B10, which IC50 [14] is on record?
**A.** Its IC50 is 110 nM.

**Q.** And the IC50 (PCSK9Δhelix [15])?
**A.** The IC50 was 4 nM.

**Q.** What about the Kd [12] of the same binder?
**A.** Its Kd is 30.3 nM.

**Q.** What about the Kd (PCSK9Δhelix [13]) of the same binder?
**A.** The Kd was 1.87 nM.
